Three molecules from paper PMC9753469 (2022) can be followed below.

B1: MBP-KRAB (ZNF93 KRAB, wild type) (domain or fragment)
chain: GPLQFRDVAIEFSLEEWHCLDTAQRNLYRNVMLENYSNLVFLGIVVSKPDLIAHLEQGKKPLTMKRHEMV
B2: MBP-KRAB (ZNF93 KRAB E35R) (domain or fragment)
chain: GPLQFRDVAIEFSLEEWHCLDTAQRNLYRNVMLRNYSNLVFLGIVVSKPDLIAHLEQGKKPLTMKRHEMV
B3: KAP1 RBCC (wild type), SPR analyte (domain or fragment)
chain: SPAGGGAEALELLEHCGVCRERLRPEREPRLLPCLHSACSACLGPAAPAAANSSGDGGAAGDGTVVDCPVCKQQCFSKDIVENYFMRDSGSKAATDAQDANQCCTSCEDNAPATSYCVECSEPLCETCVEAHQRVKYTKDHTVRSTGPAKSRDGERTVYCNVHKHEPLVLFCESCDTLTCRDCQLNAHKDHQYQFLEDAVRNQRKLLASLVKRLGDKHATLQKSTKEVRSSIRQVSDVQKRVQVDVKMAILQIMKELNKRGRVLVNDAQKVTEGQQERLERQHWTMTKIQKHQEHILRFASWALESDNNTALLLSKKLIYFQLHRALKMIVDPVEPHGEMKFQWDLNAWTKSAEAFGKIVAERP

The target in assay [1] is T1, KAP1 RBCC R311E, SPR analyte (human (by the printed UniProt entry), UniProt Q13263 1-835, R311E). The assay can be described thus: SPR.
Assay [2] addresses T1, KAP1 RBCC R311E, SPR analyte. The assay can be described thus: SPR; major phase. Background: SPR reads the build-up and loss of mass on a sensor chip optically.
Assay [3] shares this target. As to the kind of experiment: SPR; major phase. The source holds these as a separate data set.
Assay [4] has the same target. The assay can be described thus: SPR; minor phase.
For assay [5], the target named is B1. As to the kind of experiment: SPR; major phase.
The target in assay [6] is B2. The assay can be described thus: SPR; major phase.
Assay [7] deals with B1. As to the kind of experiment: SPR; minor phase.
The target of assay [8] is B1. The assay can be described thus: SPR; minor phase. The source holds these as a separate data set.
The target of assay [9] is B2. The assay can be described thus: SPR; minor phase.

Usually Kd stands for the concentration at which binding is half-saturated. A higher Kd goes with weaker binding. In general, koff refers to a measure of how fast the partners let go of each other. For the molecule B1, the Kd in [1] is 0.029 µM; in assay [3], 0.029 µM; in [4], 2 µM. This molecule returned an off-rate constant (koff) in assay [2] of 0.00083 s⁻¹.

B2 showed a koff in assay [2] of 0.0037 s⁻¹. The molecule further returned a dissociation constant Kd in assay [4] of 35.6 µM.

For B3, the figures for the koff in assay [5], in [6] and in assay [7] were 0.000232 s⁻¹, 0.008 s⁻¹ and 0.0061 s⁻¹, respectively. Also, the figures for the Kd in assay [8] and in [9] were 19 µM and 47 µM, respectively.
